From the supplement of paper PMC10567573

B1: FAM189A2 (parent)
chain: VAAALRYLQIFATRRSCIDESQIS

Variants of: B1
Assay: protein stability index of a GFP-peptide fusion (GPS, HEK-293T) (PSI 1-6); higher = more stable
Conditions: c terminus: a fixed tail appended
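Further: lentivirally expressed fusions sorted by FACS into six bins by GFP to DsRed ratio, PSI derived from sequencing read proportions per bin multiplied by bin number.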

Row | Variant | protein stability index
1 | VAAALRYLQIFATRRSPIDESQIS [C17P] | 2.05
2 | VAAALRYLQIFATRRSDIDESQIS [C17D] | 1.9
3 | VAAALRYLQIFATRRSIIDESQIS [C17I] | 2.44
4 | VAAALRYLQIFATRRSCIDESQDS [I23D] | 1.77
5 | VAAALRYLQIFATRRSCIDESQCS [I23C] | 1.73
6 | VAAALRYLQIFATRRSCIDESQAS [I23A] | 1.24
7 | VAAALRYLQYFATRRSCIDESQIS [I10Y] | 2.65
8 | VAAALRYLQIFATRRACIDESQIS [S16A] | 3.14
9 | VAAALRYLQIFATRRCCIDESQIS [S16C] | 1.87
10 | VAAALRYLQIFATRRECIDESQIS [S16E] | 1.79
11 | VAAALRYLQIFATRRQCIDESQIS [S16Q] | 1.79
12 | VAAALRYLQIFATRRICIDESQIS [S16I] | 1.5
13 | VAAALRYLQIFATRRDCIDESQIS [S16D] | 1.8
14 | VAAALRYLQIFATRRWCIDESQIS [S16W] | 2.37
15 | VAAALRYLQIFATRRVCIDESQIS [S16V] | 2.01
16 | VAAALRYLQIFATRRNCIDESQIS [S16N] | 1.57
17 | VAAALRYLQIFATRRTCIDESQIS [S16T] | 2.29
18 | VAAALRYLQIFATRRGCIDESQIS [S16G] | 1.41
19 | VAAALRYLQIFATRRMCIDESQIS [S16M] | 3.14
20 | VAAALRYLQIFATRRLCIDESQIS [S16L] | 2.4
21 | VAAALRYLQIFATRRKCIDESQIS [S16K] | 2.15
22 | VAAALRYLQIFTTRRSCIDESQIS [A12T] | 1.97
23 | VAAALRYLQIFFTRRSCIDESQIS [A12F] | 2.03
24 | VAAALRYLQIFQTRRSCIDESQIS [A12Q] | 2.29

Row | Variant | protein stability index
25 | VAAALRYLQIFGTRRSCIDESQIS [A12G] | 1.65
26 | VAAALRYLQIFSTRRSCIDESQIS [A12S] | 3.61
27 | VAAALRYLQIFKTRRSCIDESQIS [A12K] | 2.13
28 | VAAALRYLQIFNTRRSCIDESQIS [A12N] | 1.28
29 | VAAALRYLQIFHTRRSCIDESQIS [A12H] | 2.87
30 | VAAALRYLQIFYTRRSCIDESQIS [A12Y] | 2.74
31 | VAAALRYLQIFMTRRSCIDESQIS [A12M] | 2.18
32 | VAAALRYLQIFITRRSCIDESQIS [A12I] | 3.18
33 | VAAALRYLQIFLTRRSCIDESQIS [A12L] | 2.85
34 | VAAALRYLQIFDTRRSCIDESQIS [A12D] | 1.97
35 | VAAALRYLQIFPTRRSCIDESQIS [A12P] | 3.67
36 | VAAALRYLQIFCTRRSCIDESQIS [A12C] | 2.17
37 | VAAALRYLQIFVTRRSCIDESQIS [A12V] | 2.09
38 | VAAALRYLQIFRTRRSCIDESQIS [A12R] | 2.46
39 | VAAALRYLQIFAARRSCIDESQIS [T13A] | 1.71
40 | VAAALRYLQIFAFRRSCIDESQIS [T13F] | 2.78
41 | VAAALRYLQIFANRRSCIDESQIS [T13N] | 1.99
42 | VAAALRYLQIFAMRRSCIDESQIS [T13M] | 3.45
43 | VAAALRYLQIFADRRSCIDESQIS [T13D] | 1.52
44 | VAAALRYLQIFASRRSCIDESQIS [T13S] | 1.76
45 | VAAALRYLQIFAGRRSCIDESQIS [T13G] | 1.72
46 | VAAALRYLQIFAVRRSCIDESQIS [T13V] | 2.99
47 | VAAALRYLQIFAPRRSCIDESQIS [T13P] | 2.29
48 | VAAALRYLQIFAKRRSCIDESQIS [T13K] | 2.61

Row | Variant | protein stability index
49 | VAAALRYLQIFAHRRSCIDESQIS [T13H] | 2.75
50 | VAAALRYLQIFAQRRSCIDESQIS [T13Q] | 2.08
51 | VAAALRYLQIFAERRSCIDESQIS [T13E] | 2.07
52 | VAAALRYLQIFARRRSCIDESQIS [T13R] | 1.51
53 | VAAALRYLQIFATRRSCIRESQIS [D19R] | 2.05
54 | VAAALRYLQIFATRRSCICESQIS [D19C] | 3.29
55 | VAAALRYLQIFATRRSCIQESQIS [D19Q] | 1.13
56 | VAAALRYLQIFATRRSCIPESQIS [D19P] | 1.77
57 | VAAALRYLQIFATRRSCITESQIS [D19T] | 2.36
58 | VAAALRYLQIFATRRSCIEESQIS [D19E] | 2.01
59 | VAAALRYLQIFATRRSCILESQIS [D19L] | 3.03
60 | VAAALRYLQIFATRRSCIYESQIS [D19Y] | 4.69
61 | VAAALRYLQIFATRRSCIVESQIS [D19V] | 3.57
62 | VAAALRYLQIFATRRSCIMESQIS [D19M] | 3.73
63 | VAAALRYLQIFATRRSCIKESQIS [D19K] | 3.22
64 | VAAALRYLQIFATRRSCINESQIS [D19N] | 2.04
65 | VAAALRYLQIFATRRSCIGESQIS [D19G] | 2.56
66 | VAAALRYLQIFATRRSCIAESQIS [D19A] | 2.45
67 | VAAALRYLQIFATRRSCIIESQIS [D19I] | 2.5
68 | VAAALRYLQIFATRRSCIWESQIS [D19W] | 4.35
69 | VAAALRYLQIFATRRSCIFESQIS [D19F] | 1.75
70 | VAAALRYLQIHATRRSCIDESQIS [F11H] | 2.04
71 | VAAALRYLQIRATRRSCIDESQIS [F11R] | 2.63
72 | VAAALRYLQIPATRRSCIDESQIS [F11P] | 2.1

Row | Variant | protein stability index
73 | VAAALRYLQIKATRRSCIDESQIS [F11K] | 2.03
74 | VAAALRYLQIYATRRSCIDESQIS [F11Y] | 2.36
75 | VAAALRYLQIWATRRSCIDESQIS [F11W] | 2.83
76 | VAAALRYLQIGATRRSCIDESQIS [F11G] | 1.74
77 | VAAALRYLQICATRRSCIDESQIS [F11C] | 4.31
78 | VAAALRYLQIAATRRSCIDESQIS [F11A] | 2.69
79 | VAAALRYLQINATRRSCIDESQIS [F11N] | 1.34
80 | VAAALRYLQIFATRRSCIDQSQIS [E20Q] | 2.35
81 | VAAALRYLQIFATRRSCIDNSQIS [E20N] | 2.85
82 | VAAALRYLQIFATRRSCIDDSQIS [E20D] | 2.1
83 | VAAALRYLQIFATRRSCIDKSQIS [E20K] | 3.19
84 | VAAALRYLQIFATRRSCIDRSQIS [E20R] | 1.24
85 | VAAALRYLQIFATRRSCIDYSQIS [E20Y] | 3.14
86 | VAAALRYLQIFATRRSCIDPSQIS [E20P] | 3.3
87 | VAAALRYLQIFATRRSCIDLSQIS [E20L] | 3.32
88 | VAAALRYLQIFATRRSCIDWSQIS [E20W] | 4.07
89 | VAAALRYLQIFATRRSCIDCSQIS [E20C] | 3.76
90 | VAAALRYLQIFATRRSCIDASQIS [E20A] | 1.65
91 | VAAALRYLQIFATRRSCIDMSQIS [E20M] | 2.92
92 | VAAALRYLQIFATRRSCIDTSQIS [E20T] | 3.24
93 | VAAALRYLQIFATRRSCIDGSQIS [E20G] | 2.34
94 | VAAALRYLQIFATRRSCIDSSQIS [E20S] | 2.66
